From patent publication US20250326839A1 (VIGIL NEUROSCIENCE, published 2025)
Where a chain is given by its changes, count along the chain named.

B1: V6 (antibody, V domains shown)
VH: EVQLVQSGAEVKKPGESLKISCKGSGYSFTSMWIAWVRQMPGKGLEWMGIIYPGDSDTRYSPSFQGQVTISADKSISTAYLQWSSLKASDTAMYFCARQRTFYYDSSDYFDYWGQGTLVTVSS
VL: DIQMTQSPSSVSASVGDRVTITCRASQGISSWLAWYQQKPGKAPKLLIYAASSLQNGVPSRFSGSGSGTDFTLTISSLQPEDFATYFCQQADSFPRTFGQGTKLEIK
notes: also called 6E7 variant V6
B2: V43 (antibody, V domains shown)
VH: B1 VH with M32Y, D57G
VL: B1 VL
notes: also called 6E7 variant V43
B3: V22 (antibody, V domains shown)
VH: B1 VH with M32Y
VL: B1 VL with A50R
notes: also called 6E7 variant V22
B4: V32 (antibody, V domains shown)
VH: B1 VH with M32Y, P62N
VL: B1 VL
notes: also called 6E7 variant V32
B5: V19 (antibody, V domains shown)
VH: B1 VH with M32S
VL: B1 VL
notes: also called 6E7 variant V19
B6: V31 (antibody, V domains shown)
VH: B1 VH with M32Y, D57E
VL: B1 VL
notes: also called 6E7 variant V31
B7: V54 (antibody, V domains shown)
VH: B1 VH with M32Q
VL: B1 VL
notes: also called 6E7 variant V54
B8: V8 (antibody, V domains shown)
VH: B1 VH with M32Y, R59K
VL: B1 VL
notes: also called 6E7 variant V8
B9: V67 (antibody, V domains shown)
VH: B1 VH with M32Y, I50M
VL: B1 VL
notes: also called 6E7 variant V67
B10: V45 (antibody, V domains shown)
VH: B1 VH with M32Y
VL: B1 VL with W32F
notes: also called 6E7 variant V45
B11: V11 (antibody, V domains shown)
VH: B1 VH with M32Y
VL: B1 VL with D92A
notes: also called 6E7 variant V11
B12: V34 (antibody, V domains shown)
VH: B1 VH with M32Y
VL: B1 VL with N56D
notes: also called 6E7 variant V34
B13: V59 (antibody, V domains shown)
VH: B1 VH with M32Y
VL: B1 VL with Q89M
notes: also called 6E7 variant V59
B14: V71 (antibody, V domains shown)
VH: B1 VH with M32Y
VL: B1 VL with F94E
notes: also called 6E7 variant V71
B15: V55 (antibody, V domains shown)
VH: B1 VH with M32Y, R59I, F64H
VL: B1 VL
notes: also called 6E7 variant V55
B16: V56 (antibody, V domains shown)
VH: B1 VH with M32Y, S61Q
VL: B1 VL
notes: also called 6E7 variant V56
B17: V20 (antibody, V domains shown)
VH: B1 VH with M32Y, I50R
VL: B1 VL
notes: also called 6E7 variant V20
B18: V69 (antibody, V domains shown)
VH: B1 VH with M32Y
VL: B1 VL with W32Y
notes: also called 6E7 variant V69
B19: V42 (antibody, V domains shown)
VH: B1 VH with M32A
VL: B1 VL
notes: also called 6E7 variant V42
B20: V33 (antibody, V domains shown)
VH: B1 VH with M32Y, Y104G
VL: B1 VL
notes: also called 6E7 variant V33; LV-16/HV-203
B21: V30 (antibody, V domains shown)
VH: B1 VH with Y27S, M32Y
VL: B1 VL
notes: also called 6E7 variant V30; LV-16/HV-202
B22: V46 (antibody, V domains shown)
VH: B1 VH with M32Y
VL: B1 VL with S53T
notes: also called 6E7 variant V46
B23: V68 (antibody, V domains shown)
VH: B1 VH with M32Y, Y103R
VL: B1 VL
notes: also called 6E7 variant V68
B24: V44 (antibody, V domains shown)
VH: B1 VH with M32Y, G54S
VL: B1 VL
notes: also called 6E7 variant V44; LV-16/HV-204
B25: V58 (antibody, V domains shown)
VH: B1 VH with M32Y
VL: B1 VL with A50K
notes: also called 6E7 variant V58
B26: V66 (antibody, V domains shown)
VH: B1 VH with Y27T, M32Y
VL: B1 VL
notes: also called 6E7 variant V66
B27: V10 (antibody, V domains shown)
VH: B1 VH with M32Y
VL: B1 VL with A50S
notes: also called 6E7 variant V10; LV-201/HV-15
B28: V7 (antibody, V domains shown)
VH: B1 VH with M32E
VL: B1 VL
notes: also called 6E7 variant V7
B29: V23 (antibody, V domains shown)
VH: B1 VH with M32Y
VL: B1 VL with R96L
notes: also called 6E7 variant V23; LV-202/HV-15
B30: V70 (antibody, V domains shown)
VH: B1 VH with M32Y
VL: B1 VL with S52G
notes: also called 6E7 variant V70; LV-204/HV-15
B31: V18 (antibody, V domains shown)
VH: B1 VH with M32Y, W33H
VL: B1 VL
notes: also called 6E7 variant V18
B32: V57 (antibody, V domains shown)
VH: B1 VH with M32Y
VL: B1 VL with R24A
notes: also called 6E7 variant V57; LV-203/HV-15
B33: V35 (antibody, V domains shown)
VH: B1 VH with M32Y
VL: B1 VL with D92Y
notes: also called 6E7 variant V35
B34: V9 (antibody, V domains shown)
VH: B1 VH with M32Y, T101G
VL: B1 VL
notes: also called 6E7 variant V9; LV-16/HV-201
B35: V47 (antibody, V domains shown)
VH: B1 VH with M32Y
VL: B1 VL with R96M
notes: also called 6E7 variant V47
B36: V21 (antibody, V domains shown)
VH: B1 VH with M32Y, Y109F
VL: B1 VL
notes: also called 6E7 variant V21

Molecular target: T1, human TREM2 (human, UniProt Q9NZC2 19-174, limits assumed)
T1 construct: also called triggering receptor expressed on myeloid cells 2
T1 sequence: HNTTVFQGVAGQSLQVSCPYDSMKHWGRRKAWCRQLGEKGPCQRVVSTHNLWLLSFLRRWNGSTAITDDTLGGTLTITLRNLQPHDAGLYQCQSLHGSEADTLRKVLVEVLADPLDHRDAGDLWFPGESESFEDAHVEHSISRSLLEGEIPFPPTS
Assay: 1st screen, 110 nM Ab

Binder	Binding Signal
B1	0.2 fold over 6E7 parental antibody
B2	0.2 fold over 6E7 parental antibody
B3	0.3 fold over 6E7 parental antibody
B4	0.82 fold over 6E7 parental antibody
B5	0.59 fold over 6E7 parental antibody
B6	0.61 fold over 6E7 parental antibody
B7	0.55 fold over 6E7 parental antibody
B8	0.28 fold over 6E7 parental antibody
B9	0.8 fold over 6E7 parental antibody
B10	0.43 fold over 6E7 parental antibody
B11	0.79 fold over 6E7 parental antibody
B12	0.34 fold over 6E7 parental antibody
B13	0.19 fold over 6E7 parental antibody
B14	0.37 fold over 6E7 parental antibody
B15	0.24 fold over 6E7 parental antibody
B16	0.23 fold over 6E7 parental antibody
B17	0.18 fold over 6E7 parental antibody
B18	0.41 fold over 6E7 parental antibody

Binder	Binding Signal
B19	0.45 fold over 6E7 parental antibody
B20	0.23 fold over 6E7 parental antibody
B21	0.79 fold over 6E7 parental antibody
B22	0.83 fold over 6E7 parental antibody
B23	0.44 fold over 6E7 parental antibody
B24	0.65 fold over 6E7 parental antibody
B25	0.28 fold over 6E7 parental antibody
B26	0.25 fold over 6E7 parental antibody
B27	0.76 fold over 6E7 parental antibody
B28	0.11 fold over 6E7 parental antibody
B29	0.4 fold over 6E7 parental antibody
B30	0.79 fold over 6E7 parental antibody
B31	0.17 fold over 6E7 parental antibody
B32	0.84 fold over 6E7 parental antibody
B33	0.21 fold over 6E7 parental antibody
B34	0.67 fold over 6E7 parental antibody
B35	0.42 fold over 6E7 parental antibody
B36	0.76 fold over 6E7 parental antibody

Molecular target: T1, human TREM2
Assay: 2nd screen, 100 nM

Binder	Binding Signal
B1	0.56 fold over 6E7 parental antibody
B2	0.33 fold over 6E7 parental antibody
B3	0.71 fold over 6E7 parental antibody
B4	0.89 fold over 6E7 parental antibody
B5	0.48 fold over 6E7 parental antibody
B6	0.73 fold over 6E7 parental antibody
B7	0.54 fold over 6E7 parental antibody
B8	0.77 fold over 6E7 parental antibody
B9	0.84 fold over 6E7 parental antibody
B10	0.53 fold over 6E7 parental antibody
B11	0.42 fold over 6E7 parental antibody
B12	1.02 fold over 6E7 parental antibody
B13	0.6 fold over 6E7 parental antibody
B14	0.48 fold over 6E7 parental antibody
B15	0.66 fold over 6E7 parental antibody
B16	0.59 fold over 6E7 parental antibody
B17	0.52 fold over 6E7 parental antibody
B18	0.4 fold over 6E7 parental antibody

Binder	Binding Signal
B19	0.41 fold over 6E7 parental antibody
B20	0.34 fold over 6E7 parental antibody
B21	0.72 fold over 6E7 parental antibody
B22	0.96 fold over 6E7 parental antibody
B23	0.43 fold over 6E7 parental antibody
B24	0.52 fold over 6E7 parental antibody
B25	0.68 fold over 6E7 parental antibody
B26	0.74 fold over 6E7 parental antibody
B27	0.7 fold over 6E7 parental antibody
B28	0.32 fold over 6E7 parental antibody
B29	0.4 fold over 6E7 parental antibody
B30	0.84 fold over 6E7 parental antibody
B31	0.42 fold over 6E7 parental antibody
B32	0.85 fold over 6E7 parental antibody
B33	0.29 fold over 6E7 parental antibody
B34	0.54 fold over 6E7 parental antibody
B35	0.47 fold over 6E7 parental antibody
B36	0.68 fold over 6E7 parental antibody
